Test results published in paper PMC13376213, “Systematic discovery of motif-based interactions of the auxiliary domains of USP family deubiquitinases” (Nature Communications, 2026).

B1: MEIOC (protein, UniProt A2RUB1 1-952, looked up)
Meiosis-specific coiled-coil …: MEVRRGDTCPRPHPSGLREEGLEPKVAFPGGANRCWNLGADAGSRLTDVFGSVMLTGSASFYDCYTSQSEDNVDLRQTYTPFSSTEYSSSVDSSLFCAPWSTYGDDIKQPSNSQISIKNRIQTERNDYGSETDLYGLVSNILEEQDKSQPYFAEGTCSSNLKSVWPMNTSRFADHHDLLTETKRPIDTVISQQAFYSDESVSAMEKQYLRNSNLTPQQKIDELHHGFTGLDLEEQWMYPSRSDHSNCHNIQTNDTAKTTFQEYPLIKNCFTPQTGLSDIMKESGVDIYHYGRDRICTKGLEAPLQQKRAEMFLSQFNRYNENVDYCRYPEYVHPNKAKLNKCSNFSVQDSKKLANGTPETPTVEADTYTKLFQVKPANQKKMEETIPDQQNFTFPKTTPHLTEKQFAKEAVFTADFGLTSEYGLKPHTACPANDFANVTEKQQFAKPDPPHSEYFKSVNLLSNSATSSGGINLNRPTWMNVQTKNNTPIPYRNQGNLMKLNSHLSAASKGSNHSSDFPQLSSTNLTPNSNLFQKYCQENPSAFSSFDFSYSGAERIQSVNHIEGLTKPGEENLFKLVTDKKIKQPNGFCDNYSAQKYGIIENVNKHNFQAKPQSGHYDPEEGPKHLDGLSQNTYQDLLESQGHSNSHRTRGGDNSRVNRTQVSCFSNNYMMGDLRHNQCFQQLGSNGFPLRSTHPFGHSVVPLLDSYDLLSYDDLSHLYPYFNMMYGDNSFSGLMPTFGFQRPIKTRSGPASELHIRLEECCEQWRALEKERKKTELALAKNYPGKKVSSTNNTPVPRLTSNPSRVDRLIVDELRELARVVTLLGKMERLRSSLLHASISTALDRHLESIHIVQSRRKDEIVNASNRQRQGVPRCQDDRDVFALASAIKEMCVATRKTRTALWCALQMTLPKTASTADVVKPLQDTVNCEDKVHESINSSNPMNQRGETNKH
B2: CCDC85C (protein, UniProt A6NKD9 2-419, looked up)
Coiled-coil domain-containing …: AKPAATAAAASEELSQVPDEELLRWSKEELARRLRRAEGEKVGLMLEHGGLMRDVNRRLQQHLLEIRGLKDVNQRLQDDNQELRELCCFLDDDRQKGRKLAREWQRFGRHAAGAVWHEVARSQQKLRELEARQEALLRENLELKELVLLLDEERAALAATGAASGGGGGGGGAGSRSSIDSQASLSGPLSGGAPGAGARDVGDGSSTSSAGSGGSPDHHHHVPPPLLPPGPHKAPDGKAGATRRSLDDLSAPPHHRSIPNGLHDPSSTYIRQLESKVRLLEGDKLLAQQAGSGEFRTLRKGFSPYHSESQLASLPPSYQDSLQNGPACPAPELPSPPSAGYSPAGQKPEAVVHAMKVLEVHENLDRQLQDSCEEDLSEKEKAIVREMCNVVWRKLGDAASSKPSIRQHLSGNQFKGPL
B3: RTL8C (protein, UniProt O15255 1-206, looked up)
CAAX box protein 1: MGGGRGLLGRETLGPGGGCSGEGPLCYWPPPGSPPAPSLRASLPLEPPRCPLRSCSLPRSACLCSRNSAPGSCCRPWASLWSEPPPSPSSQPAPPMYIWTLSCAPAASWAPVTHWTDHPLPPLPSPLLPTRLPDDYIILPTDLRCHSHRHPSHPTDRLLLLVIWTHLGGIWAGHSPWTVIQTAGRPPRDLSPSARPISSPPPETSC
B4: SNAP23 (protein, UniProt O00161 1-211, looked up)
Synaptosomal-associated …: MDNLSSEEIQQRAHQITDESLESTRRILGLAIESQDAGIKTITMLDEQKEQLNRIEEGLDQINKDMRETEKTLTELNKCCGLCVCPCNRTKNFESGKAYKTTWGDGGENSPCNVVSKQPGPVTNGQLQQPTTGAASGGYIKRITNDAREDEMEENLTQVGSILGNLKDMALNIGNEIDAQNPQIKRITDKADTNRDRIDIANARAKKLIDS
B5: RCCD1 (protein, UniProt A6NED2 1-376, looked up)
RCC1 domain-containing …: MAEERPGAWFGFGFCGFGQELGSGRGRQVHSPSPLRAGVDICRVSASWSYTAFVTRGGRLELSGSASGAAGRCKDAWASEGLLAVLRAGPGPEALLQVWAAESALRGEPLWAQNVVPEAEGEDDPAGEAQAGRLPLLPCARAYVSPRAPFYRPLAPELRARQLELGAEHALLLDAAGQVFSWGGGRHGQLGHGTLEAELEPRLLEALQGLVMAEVAAGGWHSVCVSETGDIYIWGWNESGQLALPTRNLAEDGETVAREATELNEDGSQVKRTGGAEDGAPAPFIAVQPFPALLDLPMGSDAVKASCGSRHTAVVTRTGELYTWGWGKYGQLGHEDTTSLDRPRRVEYFVDKQLQVKAVTCGPWNTYVYAVEKGKS

System: FLAG-USP20
Assay: IP-MS of FLAG-USP20 and variants vs empty vector
Assay type: cell-based, human
[1] = IP-MS, FLAG-USP20 UBP mutant vs EV, comparison USP20_E55K_D59R/EV, Limma
[2] = IP-MS, FLAG-USP20 vs EV, comparison USP20_wt/EV, Limma
[3] = Table S7b USP20 MS_and_motif, bait USP20
[4] = IP-MS, FLAG-USP20-ΔDUSP2 vs EV, comparison bh_2 Sample_Limma_ImpMedInt_USP20_DUSP2_domain/EV

Row | Molecule | log2_FC (IP-MS, FLAG-USP20-ΔUBP vs EV, comparison bh_2 Sample_Limma_ImpMedInt_USP20_UBP_domain/EV) | log2_FC [1] | log2_FC [2] | log2_FC [3] | log2_FC [4]
1 | B1 | 4.277 | 4.883 | 5.071 | 5.071 | 
2 | B2 |  | 3.963 | 4.015 | 4.015 | 
3 | B3 |  | 5.261 |  |  | 4.856
4 | B4 |  |  |  |  | 6.953
5 | B5 |  | 4.331 |  |  | 4
